# From patent US20120178124A1, “STEROL SIDE CHAIN-CLEAVING ENZYME PROTEIN AND USE THEREOF” (MITSUBISHI CHEMICAL CORPORATION, priority 2009, published 2012)
# Experiments:
# Type in all cases: biochemical
# [1] = Analysis of the optimum pH, conversion of 4-cholesten-3-one by cell-free extract; conditions: for Specific activity: 4-cholesten-3-one to progesterone, 30° C., 14 hours
# Experimental: (§1) To 20 ml of the cell suspension prepared in (2) above, 680 μl of X10 Bug Buster (Novagen), 20 μl of Benzonase (Novagen), and 2 ml of 40 mg/ml lysozyme were added, and the obtained mixture was then shaken at 30° C. for 30 minutes to disintegrate the cells. Thereafter, the reaction solution was centrifuged to obtain the cell-free extract. The obtained, approximately 20 ml of cell-free extract was dialyzed against 1 L of Buffer R (20 mM KPB pH 7.4, 20% glycerol) two times, and the deposited precipitate was then removed by centrifugation. The cell-free extract obtained as a supernatant herein was used in the subsequent experiments.
# Using the cell-free extract prepared in (3) above, conversion of 4-cholesten-3-one was carried out at various pH values. The reaction solution was prepared, such that 1 ml of Buffer R comprised […] CYP204A1 or […] CYPSS204A, 64 μg/ml spinach-derived ferredoxin, a 0.1 U/ml spinach-derived ferredoxin reductase protein, 3 U/ml glucose dehydrogenase, 60 mM glucose, 50 μg/ml 4-cholesten-3-one, 2 mM NADH, and 2 mM NADPH. Then, 562 μl of 200 mM Buffer having various pH values was added to 1 ml of the reaction solution, so as to adjust the pH of the reaction solution. The reaction was initiated by the addition of NADH and NADPH, and it was carried out at 200 rpm at 30° C. for 14 hours. Thereafter, 1.5 ml of ethyl acetate was added to the reaction solution to terminate the reaction, and extraction was carried out. Then, extraction was carried out again with 0.75 ml of ethyl acetate. The obtained ethyl acetate phase was solidified using evaporator, and the residue was then dissolved in 200.d of methanol. Thereafter, progesterone was detected by HPLC analysis. The enzyme protein activity for conversion of 4-cholesten-3-one to progesterone under various pH conditions is shown in Table 1. The enzyme protein activity was indicated by the amount (g) of progesterone generated per hour per mol of P450.
# [2] = pH stability test of cell-free extract; conditions: for Relative activity: 140 hr versus 0 hr, 6° C.; for Activity 0 hr: immediately after mixing, reaction 15° C., 4 hours, pH 7.5
# Experimental: as §1
# 0.5 ml of the cell-free extract prepared in (3) above was mixed with 0.5 ml of 50 mM buffer having various pH values, pH was then measured, and the mixture was then conserved at 6° C. for 140 hours. […] Using the prepared cell-free extracts having various pH values, conversion of 4-cholesten-3-one was carried out. The reaction was carried out, immediately after the enzyme protein solution was mixed with buffers having various pH values and after the mixed solution was conserved for 140 hours, so as to examine the stability. The reaction solution was prepared, such that 1 ml of the buffer comprised an enzyme protein solution of CYP204A1 or CYPSS having various pH values, 64 μg/ml spinach-derived ferredoxin, 0.1 U/ml spinach-derived ferredoxin reductase protein, 3 U/ml glucose dehydrogenase, 60 mM glucose, 50 μg/ml 4-cholesten-3-one, 2 mM NADH, and 2 mM NADPH. To the reaction solution, 562 μl of 200 mM Tris-HCl was added, so as to adjust the reaction solution to pH 7.5. It was confirmed that the reaction solution maintained pH 7.5, even though enzyme protein solutions having various pH values were added thereto. The reaction was initiated by addition of NADH and NADPH, and it was carried out at 200 rpm at 15° C. for 4 hours. Thereafter, 1.5 ml of ethyl acetate was added to the reaction solution to terminate the reaction, and extraction was carried out. Then, extraction was carried out again with 0.75 ml of ethyl acetate. The obtained ethyl acetate phase was solidified using an evaporator, and the residue was then dissolved in 200 μl of methanol. Thereafter, progesterone was detected by HPLC analysis.
# [3] = Thermostability test of cell-free extract; conditions: for Relative activity: 140 hr versus 0 hr
# Experimental: as §1
# The cell-free extract prepared in (3) above was conserved at various temperature for 140 hours. The conservation temperature was set at 6° C., 10° C., 20° C., 30° C., 37° C., or 45° C. Using the enzyme protein solution before conservation and the sample obtained after conservation for 140 hours, conversion of 4-cholesten-3-one was carried out, and stability was examined. The reaction solution was prepared, such that 1 ml of the buffer comprised an enzyme protein solution of CYP204A1 or CYPSS that had been conserved at each temperature, 64 μg/ml spinach-derived ferredoxin, 0.1 U/ml spinach-derived ferredoxin reductase protein, 3 U/ml glucose dehydrogenase, 60 mM glucose, 50 μg/ml 4-cholesten-3-one, 2 mM NADH, and 2 mM NADPH. The reaction was initiated by addition of NADH and NADPH, and it was carried out at 200 rpm at 15° C. for 4 hours. Thereafter, 1.5 ml of ethyl acetate was added to the reaction solution to terminate the reaction, and extraction was carried out. Then, extraction was carried out again with 0.75 ml of ethyl acetate. The obtained ethyl acetate phase was solidified using an evaporator, and the residue was then dissolved in 200 μl of methanol. Thereafter, progesterone was detected by HPLC analysis. […] In particular, when the cell-free extract was conversed at 20° C. for 140 hours, CYP204A1 maintained 47% of its activity and CYPSS maintained 39% of its activity.
molecule,measurement,setting,value
"CYP204A1: P450scc from Novosphingobium aromaticivorans ATCC 700278, amino acid sequence SEQ ID NO: 23 (protein, Novosphingobium aromaticivorans) MARAATAAGNGLPLLDGGVPLLGHLAQFFRDPVSVLKRGYRSKGRLFAMNFMGQRMNVMLGPEHNRFFFEETDKLLSIRESMPFFLKMFSPEFYSFAEMDEYLRQRSIIMPRFKAASMKQYVPVMVEESLNLVERLGEEGEFDLIPTLGPVVMDIAAHSFMGREFHEKLGHEFFELFRDFSGGMEFVLPLWLPTPKMVKSQRAKRKLHAILQSWIDKRRAAPLDPPDFFQTMIETKYPDGRPVPDEIIRHLILLLVWAGHETTAGQVSWALADLLQNPDYQKVLRGEISSLLGGSDGRDLGWEQAVAMEKMDLALRETERLHPVAYMLSRKARADIERDGYVIRKGEFVLLAPSVSHRMEETFRNPDAYDPERFNPANPDAQIESNSLIGFGGGVHRCAGVNFARMEMKVLVAILLQNFDMELMDEVRPIAGASTYWPAQPCRVRYRRRKLDGSEAGADMAALARAAGCPAHT",Specific activity,[1]; KPB pH 6.2,0 g/h/mol
same,Specific activity,[1]; KPB pH 6.7,0 g/h/mol
same,Specific activity,[1]; KPB pH 7.1,0 g/h/mol
same,Specific activity,[1]; KPB pH 7.4,0 g/h/mol
same,Specific activity,[1]; KPB pH 7.9,0 g/h/mol
same,Specific activity,[1]; TES pH 6.6,0 g/h/mol
same,Specific activity,[1]; TES pH 6.8,0 g/h/mol
same,Specific activity,[1]; TES pH 7.3,39 g/h/mol
same,Specific activity,[1]; TES pH 7.5,97 g/h/mol
same,Specific activity,[1]; TES pH 8.0,82 g/h/mol
same,Specific activity,[1]; Tris-HCl pH 7.5,207 g/h/mol
same,Specific activity,[1]; Tris-HCl pH 8.2,114 g/h/mol
same,Specific activity,[1]; Tris-HCl pH 8.7,0 g/h/mol
same,optimum pH (pH of highest activity),[1]; conversion of 4-cholesten-3-one to progesterone,7.5
same,Relative activity,[2]; AcB pH 6.0,24%
same,Activity 140 hr,"[2]; AcB pH 6.0, conserved at 6° C. for 140 hours",0.5 µg/mL
same,Activity 0 hr,[2]; AcB pH 6.0,2.1 µg/mL
same,Relative activity,[2]; KPB pH 6.7,53%
same,Activity 140 hr,"[2]; KPB pH 6.7, conserved at 6° C. for 140 hours",1 µg/mL
same,Activity 0 hr,[2]; KPB pH 6.7,1.9 µg/mL
same,Relative activity,[2]; KPB pH 7.2,65%
same,Activity 140 hr,"[2]; KPB pH 7.2, conserved at 6° C. for 140 hours",1.3 µg/mL
same,Activity 0 hr,[2]; KPB pH 7.2,2 µg/mL
same,Relative activity,[2]; KPB pH 7.6,70%
same,Activity 140 hr,"[2]; KPB pH 7.6, conserved at 6° C. for 140 hours",1.4 µg/mL
same,Activity 0 hr,[2]; KPB pH 7.6,2 µg/mL
same,pH at which most stable,"[2]; KPB, conserved at 6° C. for 140 hours",7.6
same,Relative activity,[2]; TES pH 7.5,68%
same,Activity 140 hr,"[2]; TES pH 7.5, conserved at 6° C. for 140 hours",1.5 µg/mL
same,Activity 0 hr,[2]; TES pH 7.5,2.2 µg/mL
same,Relative activity,[2]; Tris pH 7.4,62%
same,Activity 140 hr,"[2]; Tris pH 7.4, conserved at 6° C. for 140 hours",1.3 µg/mL
same,Activity 0 hr,[2]; Tris pH 7.4,2.1 µg/mL
same,Relative activity,[2]; Tris pH 8.1,50%
same,Activity 140 hr,"[2]; Tris pH 8.1, conserved at 6° C. for 140 hours",1 µg/mL
same,Activity 0 hr,[2]; Tris pH 8.1,2 µg/mL
same,Relative activity,[2]; Tris pH 8.9,35%
same,Activity 140 hr,"[2]; Tris pH 8.9, conserved at 6° C. for 140 hours",0.7 µg/mL
same,Activity 0 hr,[2]; Tris pH 8.9,2 µg/mL
same,Activity 140 hr,[3]; conserved at 6° C. for 140 hours,4.5 µg/mL
same,Relative activity,[3]; conserved at 6° C.,85%
same,Activity 140 hr,[3]; conserved at 10° C. for 140 hours,3.9 µg/mL
same,Relative activity,[3]; conserved at 10° C.,74%
same,Activity 140 hr,[3]; conserved at 20° C. for 140 hours,2.5 µg/mL
same,Activity 140 hr,[3]; conserved at 30° C. for 140 hours,0.5 µg/mL
same,Relative activity,[3]; conserved at 30° C.,9%
same,Activity 140 hr,[3]; conserved at 37° C. for 140 hours,0 µg/mL
same,Relative activity,[3]; conserved at 37° C.,0%
same,Activity 140 hr,[3]; conserved at 45° C. for 140 hours,0 µg/mL
same,Relative activity,[3]; conserved at 45° C.,0%
same,Activity 0 hr,"[3]; enzyme protein solution before conservation, reaction 15° C., 4 hours",5.3 µg/mL
